Type in all cases: binding
Test [1] relates to human tau and mouse tau. Put plainly: Western blot of WT, L66+/+ and L1+/+ mouse brain homogenates. To be noted: 20 μg protein, 5-month-old mice. As for the experimental part:
Protein equivalent to 20 μg from each brain extract was separated using 4-20% bis-tris gels and run in 1×MES buffer.
A band is detected in each sample (WT, L66^+/+ and L1^+/+) with an apparent molecular weight of approximately 55 kDa. This band most likely corresponds to endogenous mouse tau which is of a similar size. In the L66^+/+ samples, a second band running at approximately 68 kDa is also detected. The presence of numerous other bands indicates proteolytic truncation of tau within brain homogenates.
Background: Immunoblotting shows a protein as a band on a membrane.

In test [2] the target is dGA (Homo sapiens, UniProt P10636). The experiment in a line: Biacore X100 SPR, scAb captured via anti-HuCk, dGA as analyte. To be noted: dissociation rate. The gist of the method:
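Anti-HuCk antibody amine-coupled to a CM5 chip captured scAbs in HBS-EP+ buffer, with flow cell 1 as reference. Multi-cycle runs used 0.15625–100 nM analyte, single-cycle runs 6.25–100 nM; association 120 s, dissociation 420 s, regeneration with glycine pH 2.0, and data fitted to a 1:1 binding model.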
Background: SPR reads the build-up and loss of mass on a sensor chip optically.

Test [3] addresses hT40 (Homo sapiens, UniProt P10636). The experiment in a line: Biacore X100 SPR, scAb captured via anti-HuCk, hT40 as analyte. The note with it: scAb, Table 23, T441 (hT40). A digest of the protocol:
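Captured scAb on anti-HuCk CM5 surface (flow cell 1 as reference) in HBS-EP+, capture set for theoretical RMax 100 RU; hT40 injected multi-cycle (0.15625–100 nM) or single-cycle (6.25–100 nM), 120 s association, 420 s dissociation, glycine pH 2.0 regeneration. Kinetics and affinity from 1:1 binding model fit.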

The target of test [4] is htau40 (Homo sapiens, UniProt P10636). The experiment in a line: Biacore X100 SPR of anti-tau mAbs on immobilised htau40. To be noted: mAb, Table 27, immobilised hT40. A digest of the protocol:
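htau40 amine-coupled to a CM5 chip (~250 RU); mAb injected at 0.78–25 nM in HBS-EP+ at 30 μL/min, 120 s association, 600 s dissociation, glycine pH 1.5 regeneration. Kinetics and affinity from 1:1 binding fit with reference-cell subtraction.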

The values that follow come from patent publication US12624096B2, “Anti-tau antibodies and methods of use thereof” (GTInvent Limited, priority 2020, dated 2026).

“Also recorded” adds a separate entry of the source.

hT40, sequence (P10636 1-441 isoform P10636-8): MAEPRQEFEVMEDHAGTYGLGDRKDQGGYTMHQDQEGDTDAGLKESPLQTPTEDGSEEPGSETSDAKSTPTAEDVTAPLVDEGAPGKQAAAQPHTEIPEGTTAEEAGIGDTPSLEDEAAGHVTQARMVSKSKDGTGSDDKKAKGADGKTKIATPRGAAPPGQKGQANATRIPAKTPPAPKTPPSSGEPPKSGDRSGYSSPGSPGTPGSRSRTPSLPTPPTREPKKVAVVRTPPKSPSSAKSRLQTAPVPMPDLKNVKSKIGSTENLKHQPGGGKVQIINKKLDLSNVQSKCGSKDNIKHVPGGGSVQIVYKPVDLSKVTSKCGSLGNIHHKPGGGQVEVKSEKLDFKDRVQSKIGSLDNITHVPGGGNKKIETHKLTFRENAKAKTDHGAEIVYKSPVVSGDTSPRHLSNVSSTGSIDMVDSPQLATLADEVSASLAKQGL
htau40, sequence (P10636 1-441 isoform P10636-8): as above
dGA, sequence (P10636 614-707): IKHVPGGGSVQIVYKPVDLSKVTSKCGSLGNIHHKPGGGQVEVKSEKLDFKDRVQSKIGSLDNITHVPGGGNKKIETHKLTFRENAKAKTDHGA

B1: S1G2: anti-tau clone, SEQ ID NO: 81 (protein)
scFv: QVQLQESGPSLVKPSQTLSLTCTVSGFSLTSNSVGWVRQAPGKAPEWVAGIDTDGEEGYNPALNSRLSITRDTSKSQVSLSLSSVTSEDTAVYYCGRSYRADGLAYGYVQAIDYWGPGLLVTVSSEGKSSGASGESKVDDQAVVTQPSSVSGSLGQRVSITCSGSFIGISSVGWFQQLPGSGLRTIIVASDGRPSGVPDRFSMSKSGNTATLTISSLQAEDEADYFCGSSDRTPYTGVFGSGTRLTVLG
modifications: S1G2 amino acid sequence
Consider B1, for which the “bands detected in western blot of WT, L66+/+ and L1+/+ brain homogenates” value in test [1] is “numerous bands visible in each mouse sample; also recorded: able to detect the pathologic 10-kDa tau fragment”. Besides, the “Kd” value in test [2] worked out at 0.0003499 s⁻¹. In test [3], this molecule gave a ka of 1.057e+06 M⁻¹ s⁻¹ and a kd of 0.00018 s⁻¹. In test [4], this molecule registered a ka of 339800 M⁻¹ s⁻¹ and a kd of 4.748e-05 s⁻¹.

B2: S1D12: anti-tau clone from immunised sheep, SEQ ID NO: 32 (protein)
scFv: QVQLQESGPSLVKPSQTLSLTCTVSGFSLNNNAVGWVRQAPGKVPESLVGCSSDGTCYYNSALKSRLDITRDTSKNQISLSLSSVTTDDAAVYYCTRGHYSIYGYDYLGTIDYWGPGLLVTVSSEGKSSGASGESKVDDQAVLTQPSSVSGSLGQRVSITCSGSSSNVGGGNSVGWYQHLPGSGLKTIIYDTNSRPSGVPDRFSGSRSGNTATLTINSLQAEDEGDYYCVTGDSTTHDDLVGSGTRLTVLG
modifications: S1D12 amino acid sequence
Turning to B2, the “bands detected in western blot of WT, L66+/+ and L1+/+ brain homogenates” value in test [1] is recorded as “numerous bands visible in each mouse sample”. The “Kd” value in test [2] is 0.000418 s⁻¹. In test [3], this molecule displayed a ka of 1.252e+06 M⁻¹ s⁻¹ and a kd of 0.00015 s⁻¹. In test [4], this molecule displayed a ka of 405800 M⁻¹ s⁻¹ and a kd of 4.093e-05 s⁻¹.
